Where a chain is given by its changes, count along the chain named.
B1: 3G8 antibody (antibody, V domains shown)
VH: QIQLVQSGPELKKPGETVKISCKASGYSFTKYGMNWVKQAPGKDIKWMGWINTNTGEATYGEEVKGRFAFSLETSASTAYLQINNLKNEDTATYFCARLGLRYLDYWGQGTTLTVSS
VL: DIVMTQSPASLVVSLGQRATISCRASKSVSTSDYSYMHWYQQKPGQPPKVLIYLASNLESGVPARFSGSGSGTDFTLNIHPVEEEDAATYYCQHNRELPPTFGAGTKLELK
notes: Mouse monoclonal antibody from a hybridoma; also called 3 GB (as misprinted); anti-BAG2 antibody 3G8
B2: 3F12 antibody (antibody, V domains shown)
VH: QVQLQESGPDLVKPSQSLSLTCTVTGYSITSGYSWHWIRQFPGNKLEWMGYIYYRGSTNYNPSLKSRISITRDTSKNQFFLLLKSVTTEDTATYYCAREAYWGQGTLVTVSA
VL: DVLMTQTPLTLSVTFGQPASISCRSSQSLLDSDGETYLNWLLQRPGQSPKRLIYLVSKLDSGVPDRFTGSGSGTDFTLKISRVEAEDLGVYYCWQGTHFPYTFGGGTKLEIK
notes: Mouse monoclonal antibody from a hybridoma; also called anti-BAG2 antibody 3F12
B3: 9B12 antibody (antibody, V domains shown)
VH: QVQLQQSGAELVRPGTSVKVSCKASGYAFTNYMIEWIKQRPGQGLEWIGVINPGSGGSYYNEKVKGKATLTADRSSSTAYMQFSSLTADDSGVYFCRIYGNYKGYFDHWGQGTTLTVSS
VL: DIVMTQSPSSMYASLGERVTITCKASQDMNSYLSWFQQKPGKSPKTLIYRANRLVDGVPSRFSGSGSGQDYSLTISSLEYEDMGIYYCLQNDEFPFTFGSGTKLEMK
notes: Mouse monoclonal antibody from a hybridoma; Capture antibody in the sandwich ELISA; also called anti-BAG2 antibody 9B12
B4: 2A11 antibody (antibody, V domains shown)
VH: QVQLQQPGAELVRPGASVTLSCKASGYTFTDYEMHWVKQTPVHGLEWIGIIDPETGGTAYNQKFKGKATLTADKSSSTAYMELRSLTSEDSAVYYCTRGKFYYSGRDYAMDYWGQGTSVTVSS
VL: DVLMTQTPLSLPVSLGDQASISCRSSQSIVHSNGNTYLEWYLQKPGQSPKLLIYKVSNRFSGVPDRFSGSGSGTDFTLKISRVEAEDLGVYFCFQGSQVPPTFGGGTKLEIK
notes: Mouse monoclonal antibody from a hybridoma; Capture antibody in the sandwich ELISA; also called anti-BAG2 antibody 2A11
B5: 8C4 antibody (antibody, V domains shown)
VH: B4 VH with G56A
VL: B4 VL with I53F
notes: Mouse monoclonal antibody from a hybridoma; also called 8G4 (as misprinted); anti-BAG2 antibody 8C4
B6: 3B10 antibody (antibody, V domains shown)
VH: B3 VH with S7P, V12A, Y27H, S58T, N61S, F83L
VL: B3 VL with A51S, E79D, M106I
notes: Mouse monoclonal antibody from a hybridoma; also called anti-BAG2 antibody 3B10
B7: 9B3 antibody (antibody, V domains shown)
VH: B3 VH with Q1E, R74K, G92A, H108Y
VL: B3 VL with M29I, M106I
notes: Mouse monoclonal antibody from a hybridoma; also called anti-BAG2 antibody 9B3
B8: 3B5 antibody (antibody, V domains shown)
VH: EVQLQQSGPELVKPGASVKLSCKASGYSFTDYTFYWVRQSHGESLEWIGYIDPYNGGNTYNRKFKGKATLTVDKSSSTAFMHLNSLTSEDSAVYYCARGYYRYGGGGDFDYWGQGTTLTVSS
VL: B4 VL with I29L, E39H, Y54H, V90I, F94S, G96N, S97T, Q98H, V99I, G104A
notes: Mouse monoclonal antibody from a hybridoma; also called anti-BAG2 antibody 3B5
B9: 4C2 antibody (antibody, V domains shown)
VH: B4 VH with G57A
VL: B4 VL with I53F
notes: Mouse monoclonal antibody from a hybridoma; also called anti-BAG2 antibody 4C2

molecular target: T1, Myc-tag BAG2 (Homo sapiens (Human), UniProt O95816 1-211, limits assumed); assay: sandwich ELISA on lysate of MDA-MB-231 cells overexpressing Myc-tag BAG2 (OE) against empty vector cells (EV)
T1 construct: Expressed in MDA-MB-231 cells; 30 ug of lysate tested in the sandwich ELISA against cells with the Myc-tag empty vector (EV); not tied to this vector in so many words; also called BAG2 overexpressed from the Myc-tag BAG2 expression vector; OE; not shown: Myc tag
T1 sequence (O95816 whole entry): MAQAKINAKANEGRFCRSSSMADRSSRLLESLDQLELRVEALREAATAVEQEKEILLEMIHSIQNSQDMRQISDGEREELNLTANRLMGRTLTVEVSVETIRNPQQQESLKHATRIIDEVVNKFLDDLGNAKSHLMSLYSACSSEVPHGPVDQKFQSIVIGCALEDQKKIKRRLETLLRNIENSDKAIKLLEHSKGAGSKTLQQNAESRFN

| binding result | Binder |
| --- | --- |
| binds | B1 |
| binds | B2 |
| binds | B3 |
| binds | B4 |
| binds | B5 |

molecular target: T2, GST-Bag Full (GST fusion of full-length human BAG2) (human, UniProt O95816 1-211); assay: immunoblot on lysate of HEK293T cells transfected with GST-Bag Full vector
T2 construct: Expressed in HEK293T cells, tested in cell lysate by immunoblot; band at about 50 kDa; also called GST-Bag Full vector product; full-length BAG2 polypeptide; not shown: GST tag from the pcDNA3.1+/GST vector, about 26 kDa
T2 sequence (O95816 whole entry, the tested form may be a part): as the sequence (O95816 whole entry) above
Text: Next, for domain mapping of the BAG2 antigen to which the ten antibodies identified in Section 1 above, cells, to which the GST-Empty vector (pcDNA3.1+/GST vector, NovoPro Bioscience Inc. China) having a molecular weight of about 26 kDa was introduced, was used as a negative control. GST-Bag Full vector, GST-Bag F1 vector, GST-Bag F2 vector, GST-Bag F3 vector, and GST-Bag F4 vector, each including polynucleotides encoding human BAG2 protein and polynucleotides encoding fragments of the BAG2 protein, were introduced into cells, and the cells with the vectors introduced thereinto were cultured to express the genes, and then, cell lysates were obtained. For cell lysates, immunoblotting was performed using each of the 10 antibodies. The polynucleotide encoding the human BAG2 protein has the nucleotide sequence of SEQ ID NO: 70. The GST-Bag F1, -Bag F2, -Bag F3, and -Bag F4 vectors consist of the nucleotide sequences of SEQ ID NOS: 71 to 74, respectively.
FIGS. 2A and 2B show the results of immunoblotting for the full-length BAG2 polypeptide of anti-BAG2 antibody or a fragment thereof. […] In detail, the immunoblotting was performed as follows: each of the vectors was introduced into HEK293T cells by lipofectamine transfection (Thermo Fisher Scientific, Inc., Waltham, MA, USA) method, and the obtained transformed cells were cultured at a temperature of 37° C. in DMEM (Welgene) medium containing 10% FBS, 100 U/ml penicillin and 100 µg/ml streptomycin for 30 hours, and then cells were isolated. The isolated cells were disrupted using the same method as described in connection with FIG. 1 and subjected to […] analysis on a 12% gel. For immunoblotting, after reacting for 1 hour with the same blocking solution as described in connection with FIG. 1, each of the 10 purified anti-BAG2 antibodies having a concentration of 2 mg/ml was used as a primary antibody at a dilution of 1/10000 dilution and bound to the cells. The goat anti-mouse HRP conjugate used as the secondary antibody was used at a 1/5000 dilution concentration, and Film-photosensing was carried out in the dark using EGL reagent (Amersham Pharmacia Biotech) as a substrate. Standard molecular marker sizes were expressed to confirm the size of BAG2.

| binding result | Binder |
| --- | --- |
| binds | B1 |
| binds | B2 |
| binds | B3 |
| binds | B6 |
| binds | B7 |
| binds | B4 |
| binds | B8 |
| binds | B9 |
| binds | B5 |

molecular target: T3, human BAG2 protein (human, UniProt O95816 2-211); assay: Western blot on MDA-MB-231 cell lysate
T3 construct: also called BAG2 polypeptide; Bcl-2-associated athanogene 2
T3 sequence (O95816 2-211 limits assumed): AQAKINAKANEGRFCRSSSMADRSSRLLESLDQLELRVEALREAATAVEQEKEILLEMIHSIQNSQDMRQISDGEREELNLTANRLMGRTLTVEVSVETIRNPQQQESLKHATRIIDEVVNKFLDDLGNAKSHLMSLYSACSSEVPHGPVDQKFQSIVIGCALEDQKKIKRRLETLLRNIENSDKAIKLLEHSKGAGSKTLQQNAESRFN

| binding result | Binder |
| --- | --- |
| binds | B1 |
| binds | B3 |
| binds | B6 |
| binds | B7 |
| binds | B8 |
| binds | B9 |
| binds | B5 |

molecular target: T3, human BAG2 protein; assay: selection of hybridoma clones by immunoblotting

| binding result | Binder |
| --- | --- |
| binds | B2 |
| binds | B4 |

— patent US12583915 (MEDPACTO, dated 2026)
